# Laboratory results taken from the nanobody polyreactivity screen of Harvey et al. (2022).
# Test: yeast display, Sf9 membrane polyspecificity reagent, FACS + sequencing; frameworks hold sequencing errors
# In short: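 Nanobodies came from a synthetic yeast display library in Saccharomyces cerevisiae BJ5465, induced with galactose for 36–48 hours and stained for 1 hour at 4 °C with 10% biotinylated, detergent-solubilized Sf9 membrane reagent. Cells were enriched on streptavidin microbeads and then FACS-sorted, with low and high (top ~1%) gates set on anti-HA fluorescence for expression and streptavidin fluorescence for reagent binding. Each polyreactivity label reflects the gate a clone came from. Genes were amplified by colony PCR, sequenced by MiSeq 2 × 250 and filtered by CDR length.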
row,Sequence,polyreactivity (PSR sort gate)
1,QVQLVESGGGLVQAGGSLRLSCAASGFIFLEYAMGWYRQAPGKERELVAAISARTGSTYYADSVKGRFTISRDNEKNTVYLLMNSLIPEDTAVYYSNKLTWRGEVDYWGHGTQVTVSS,high polyreactivity
2,QVQLVESGGGLVQAGGSLRLSCAASGGTFQSNAMGWYRQAPGKERELVASITSRGSSTYYADSVKGRFTISRDNAKNTFYLLMNSLKPEDTAVYYCAKGSSWQIYYKGGIKGGYWGQGTQVTVSS,low polyreactivity
3,QVQLVESGGRLVQAGGSLRLSCAASGSIFTVYAMGCYRQAPGKERELVAAIRRTGSRTYYADSVKGRFTNSRDNAKNTVYLQMNSLKPEDTAVYYCAADVWFDRRSVRLNYWGQGTQVTVSS,high polyreactivity
4,QVQLVASGGGLVQAGGSLRLSCAASGSISFYNAMGWYRQAPGKERELVAAINRSGGSTNYADSVKGLFTISRDNGKNTVYLQMNSLKPEDTAVYYCAAVSSKGNRHVYDYWGQGTQVTGSS,low polyreactivity
5,QVQLVESGGGLVQAGGSLRLSCAASGFTFTGNAMVWYRQAPGKERELVAAIRGSGGSTYYADSVKGRFTISRDNAKNTVNLQMKSLKPDVTAVYYCATYYIRNKGFDYWGQGTQVTVSS,high polyreactivity
6,QVQLEESGGGLVQAGGSLRLSCAASGFTFYRDTMGGYRQAPGKERELFAAITRDGSTYYADSVKGRFTISRDNAKYTVSLQLNSLKPEDTAVYYWNARGTVPWYGYDYWGQGTQVNVSS,high polyreactivity
7,QVHLVESGGGLVQAGGSLRLSCAASGFTFNRYAMGWYRQAPGKERELVATISSGGNTNYADSVKGRFTISRDNAKKTVYLQMNSLKPEDTAVYYCNADRWFHYYSYNYWGQGTQVTVSS,high polyreactivity
8,QVQLVESGGGLVQAGGSLRLSCAASGIIFKGYDMGWYRQAPGKERELVAAISSGSTNYADSVKGRFTISRDNAKNTVYLQMNSLKPEDTAVYYCAAYNDTVPSAAHIYESWGQGTQVTVSS,low polyreactivity
9,QVQHVESGGGLVQAGGSLRLSCAASGFNFAYNIMGWYRQAPGKERELVADISGTGSTNYADSVKGRFTISRDNAKNTVYLQMNSLKPEDTAVYYCATSGDRLVWGQGTQVTVSS,low polyreactivity
10,QVQLVESGGGLVQAGGSLRLSCAASGRTFVLYTMGWYRQAPGKERELVAVGSTYYADSVKGRFTISRDNAKNTVYLQMNSLIAEDTAVYYCAADIHWYGYYYWGLGTQVTVSS,high polyreactivity
11,QVQLVESGGGLVQAGGSLRLSCAPSGFTFGYYAMGWYRQAPGKEMELVAAISSSGGSTYYADSVKGRFTISRDNAKKTVYLQMNSLKREVTAVYYCAVVVFSRVYRYFTSDYWGQGTQVTVSS,high polyreactivity
12,QVQLVESGGGLVQAGGSLRLSCAAMGWYRQAPGKERELVATLTWSGGSTYYADSVKGRFTISRDNAKNPVYLQMNRLKPEDTAVYYCNARATLLSPANTIRGYDYWGQGTQVTVSS,low polyreactivity
13,QVQLVESGGGLVQAGGSLRLSCAASGRTFRWYAMGWSRPAPGKERELVASISRGGSKSYADSVKGRFTISRDNAKNTVYLQMNSLKPEDTAVYYCNAKYRLEMDLGQGTQVTVSS,high polyreactivity
14,QVQLVESGGGLVQAGGRLRLICAASASNFAGYDKGWYRQAPGKERELVAAITSGGDTYYADSVKGRFTISRDNAKNTGYLQMNSLKPEDTAVYYCNKDYILARYGGGRDYWGQGTQVTVSS,low polyreactivity
15,QVQLVESGGGLVQAGGSLRLSCAASGFTFPVYAMGWYRQAPGKEREFVAAITYIGGSTDADSVKGRFTISRDNAKNTVYLQMNSLKPEDTAVYYCAADIITEYRADYLVYLEYDYWGQGTQVTVSS,low polyreactivity
16,QVQLVESGGGLVQAGGSLRLSCAASGLTFIYYAMGWYRQAPGKERELVARINNGDNTYYADSVKGRFTISRDNAKNTVYLQMNRLNPEDTAVYYCAAARYSRLSRTRPGKYGYWGQGTQVTVSS,low polyreactivity
17,QVQLVESGGGLVQAGGSLRLSCAASGFIFYDYDMGCYRQAPGKERELVAAITYSGGSTYYADSVKGRFTISRDNAKNTVYLQMNSLKPEDTAVYYCAAVKSRYAEAVDYYYWGQGTQVTVSS,low polyreactivity
18,QVQLVESGGRLVQARGSLRLSCAASGSIFATYVMGWYRQAPGKERELVATITYSGDSTYYADSVKGRFTISRDNAKNTVYLQMNSVKPEDTAVYYCAADYFTLYPYRGFDYWGQGTQVTVSS,low polyreactivity
19,QVQLVESGGGLVQAGGSLRLSCAASGRIFRRNVMGWYRQAPGKERELLAAIRGTGSTTYADSVKGRFTISRDNAKNTVYLQMNSLKPEDTAVYYCNAYKGQTGGGGRYGYWGQGTQVTVSS,high polyreactivity
20,QVQLVESGGGLVQAGGSLRLSCAASGRIFRQYAMGWYRQAPGKEREFVAGISTTGGSTYYADSVKGRFTISRDNAKNTVYLQMNSLKPEDTAVYYCAVRINWSRWYHYYTYNYWGQGTQVTVSS,high polyreactivity
21,QVQLVESGGGLVQAGGIIRLSCDASGSTFVIYAMGWYRQAPGKERELVAVIDYSDDSTYYADSVKGRFTISRDNAKNTGYLQLNSVKPEVTEVYFCAAYVYYAKGSFDYWGQGTQVTVSS,high polyreactivity
22,QVQLVESGGGLVQAGGSLRLSCAASGFTFGSYAMGWYRQAPGKERELVAGITFSTGTTSYADSVKGRFTISRDNAKTTVYLQMNSLKPEDTAVYYCAADLIPNEDYWGQGTQVTVSS,low polyreactivity

row,Sequence,polyreactivity (PSR sort gate)
1,QVQLVESGGGLVQAGGSLRLSCAASGFTFGRYAMGWYRQAPGKERELVAAINYTDGSTYYADSVKGRFTISRDNAKNTVYLQMNSLKPEDTAGYYCAATTLSFEGGKYWSKYDYWGQGTQVTVSS,low polyreactivity
2,QVQLVESGGGLVQAGGSLRLSCAASGFTFNYYAMGWYRQAPGKERELVAGITRSGVSTNYADSVKGRFTISRDNAKNTVYLQMNSLKPEDTAVYYCAREEGRRYRGWPYVYAPQHDYWGQGTQVTVSS,high polyreactivity
3,QVQLVESGGGLVQAGGSLRLSCAASGFTFWTYARGWYRQAPGKERELVAAIDSGGSTYYADSVKGRFTISRDNAKNTVYLQMNSLKPEDTAVYYCNAGPSVTSGYDYDYWGQGTQVTVSS,low polyreactivity
4,QVQLVESGGGLVQAGGSLRLSCAASGRTFKLYAMGWYIQAPGKERELVAAISIRGTSTYYADSVKGRFTISRDNAKNTVYLQMNSLKPEDTAVYYCAAEDRYAYYMVRWQCYYYWGQGTQVTVSS,low polyreactivity
5,QVQLVESGGGLVQAGGRLRLSSAASRIIFRDNDMGWYRQAPGKERELVASISDSGGSTYYADSVKGRFTISRDNAKNTVYLQKNSLKSEATAVYYCAAPYLSLYLYDYWGQGTQVTVSS,low polyreactivity
6,QVQLVESGGGLVQAGGSLRLSCAASGSIFRIYAMGWYRQAPGKERELVAAITGRGGSTYYADSVKGRFTISRDNAKNTVYLQMNSLKPEDTAVYYCAAEERYAYRYDYWGQGTQVTVSS,high polyreactivity
7,QVQLVESGGGLVQAGGSLRLSCAASGRIFKSYVMGWYRQAPGKERELVAAITRTGGSTYYADSVKGRFTISRDNAKYTVYLQMNSLTPEDTAVYYCNARYSWPRATWYDYWGQGTQVTVSS,high polyreactivity
8,QVQLVESGGGLVQAGGSLRLSCAASGRTFTAYTMGWYRQAPGKERELVASISSGVTYADSVKGRFTISRDNAKNTVYVQMNSLKPEDTAVYYCAARLWYVQGYVPYVHHRFDYWGQGTQVTVSS,low polyreactivity
9,QVQLVESGGGLVQAGGSLRLSCAASGITFPYYVMGWYRQAPGKERELVAAISKSVGRTYYADSVKGRFTISRDNAKNTVYLQMNSLKPEDTAVYYCAAYSSYYVHRFQHYDYWGQGTQVTVSS,high polyreactivity
10,QVQLVESGGGLVQAGGSLRLSCAASGSIFKPYVMGWYRQAPGKERELVAAITSSGVSTYYADSVKGRFTISRDNAKNTVYLQMNSLKPEDTAVYYCAADQYLGRAWRRRGYYWGQGTQVTVSS,high polyreactivity
11,QVQLVESGGGLVQAGGSLRLSCAASGSTFTSYVMGWYRQAPGKEREFVAAITSSGGDTYYADSVKGRFTISRDNAKNTVYVQMNSLKPEDTEVYYCATRSYYRSSYYRNRYPYDYWGQGTLVTVSS,low polyreactivity
12,QVQLVESGGGLVQAGGSLRLSCAASGIIFGRYAMGWYRQAPGKEREFVAAIRSRGGSTYYADSVKGRFTISRDNAKNTVYLQMNSLKPEDTAVYYCNAGHIYAGYRREYDYWGQGTQVTVSS,high polyreactivity
13,QVQRVESGGGLVQAGGSLRLSCAASGRILGKYAMGRYIQAPGKEREVVAAIRLRGGSTYYADSVKGRFTISRDNAKNTVYLQMNSLKPEDTAVYYCAATYWDRSQAYNYWGQGTQVTVSY,high polyreactivity
14,QVQLVESGGGLVQAGGSLRLSCAASGSIFPEYVMGWYRQAPGKERELVAAISWSGGSTYYADSVKGRFTISRDNAKNTVYLQMNSLKPEDTAVYYCNRVPSWRIDYDYWGQGTQVTVSS,low polyreactivity
15,QVQLVESGGGLVQAGGSLRLSCAASGIIFTINAMGWYRQAPGKERELVAAISWGTGTTYYADSVKGRFTISRDNAKNTVYLQINSLKPEDTAVYYCAADGYDTYGYWGQGTQVTVSS,low polyreactivity
16,QVQLVDSGGGLVQAGGTLRLSCGASGLIFYLYAMGWFRQAPGKERELVAAITYSGGSTRYADSVKGRFTISRDNAKNTVYFQKNSLKPEDTAVYYCNAAGTAPTELDYWGQGSQVTVSS,low polyreactivity
17,QVQLVESGGGLVQAGGSLRLSCAASGSIFGGYAMGWYRQAPGKERELVARITDRGGSTDYADSVKGRFTISRDNAKNTVYLQMNSLTPEDTAVYYCAKRGDRYEKRPRDYWGQGTQVTVSS,low polyreactivity
18,QVQLVESGGGLVQAGGSLRLSCADSGFIFGYYAMGWYRQAPGKERELVAAINKNGGSTYYADSVKGRFTISRDNAKNTVYLQMNSLKPEDTAVYYCAARARGYAWTFDYWGQGTQVTVSS,high polyreactivity
19,QVQLVESGGGLVQAGGSLRLSCAASGSIFYVYAMGWYRQAPGKERELVAAITSSGTTNYADSVKGRFTISRDNAKNTVYLQMNSLKPEDTAVYYCAADAYSGAYFTYLGEIYDYWGQGTQVTVSS,low polyreactivity
20,QVQLVESGGGLVQAGGSLRLSSAATGSTSFQNAMGWYRQAPGKEREFVAAISGSGDRTNYADSVKGRFTISRDNAKNTVYLQMNSLIPEDTAVYYCAAVRGYPPTNYYYWGQGTQVTVSS,high polyreactivity
21,QVQLVESGGGLVQAGGSLRLSCAASGSIFGYYTMGLYRQAPGKERELVAAITSGGSTNYADSVKGRFTISRDNAKNTVYLQMNSLKPEDTAVYYCAKVSYYPWRYDYWGQGTQVTVSS,low polyreactivity
